Measurements: PMC4117760

What was measured:
[1] = target: MBP-DXV VP3 (Drosophila X virus (DXV)) (UniProt Q96724); assay: EMSA
[2] = test system: MBP-CYV VP3 (Culex Y virus (CYV)); assay: EMSA

UniProt Q96724, sequence (Q96724 whole entry): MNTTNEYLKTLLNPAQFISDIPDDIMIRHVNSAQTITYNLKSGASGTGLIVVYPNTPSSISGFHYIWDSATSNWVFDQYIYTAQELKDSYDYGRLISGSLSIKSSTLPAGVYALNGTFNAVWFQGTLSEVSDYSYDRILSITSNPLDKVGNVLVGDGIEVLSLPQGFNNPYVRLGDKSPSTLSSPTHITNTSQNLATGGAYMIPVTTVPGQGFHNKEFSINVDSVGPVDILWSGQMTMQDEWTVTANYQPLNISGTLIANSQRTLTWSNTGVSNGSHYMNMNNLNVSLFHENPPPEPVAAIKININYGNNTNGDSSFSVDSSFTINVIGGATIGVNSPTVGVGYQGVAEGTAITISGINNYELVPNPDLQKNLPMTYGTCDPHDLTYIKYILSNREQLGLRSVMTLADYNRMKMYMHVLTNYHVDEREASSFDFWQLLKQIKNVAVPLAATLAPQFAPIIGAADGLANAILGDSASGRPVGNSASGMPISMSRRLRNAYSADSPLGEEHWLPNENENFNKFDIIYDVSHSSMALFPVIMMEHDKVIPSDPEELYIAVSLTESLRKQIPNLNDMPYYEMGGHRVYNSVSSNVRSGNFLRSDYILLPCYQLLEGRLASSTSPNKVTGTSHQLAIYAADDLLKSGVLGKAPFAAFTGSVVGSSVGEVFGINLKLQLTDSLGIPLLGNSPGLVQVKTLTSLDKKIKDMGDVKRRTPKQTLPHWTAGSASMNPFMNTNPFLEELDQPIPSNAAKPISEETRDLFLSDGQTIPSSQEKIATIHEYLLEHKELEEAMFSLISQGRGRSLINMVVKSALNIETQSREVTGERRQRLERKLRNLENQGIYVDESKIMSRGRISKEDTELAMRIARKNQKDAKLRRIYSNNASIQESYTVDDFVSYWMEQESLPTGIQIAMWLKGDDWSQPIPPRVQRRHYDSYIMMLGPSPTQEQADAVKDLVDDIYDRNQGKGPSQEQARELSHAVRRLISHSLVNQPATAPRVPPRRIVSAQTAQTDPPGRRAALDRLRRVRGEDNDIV

Substance: 126-nt FLuc dsRNA
- Kd [1]: 166 nM
- Kd [2]: 116 nM
